We go through two molecules from patent CN112794909A (GUANGZHOU EXCELMAB BIOMEDICAL TECH CO LTD, dated 2021).

As a reminder, the EC50 is the concentration at which the effect is half-maximal. Lower therefore signals a more potent agent.

For assay [1], the target named is T1, 重组人TIGIT蛋白抗原 (human, UniProt Q495A1 21-141, limits assumed).
T1 construct: Made as TIGIT-Fc in 293F, cut with TEV protease and purified; also called TIGIT抗原; 人TIGIT抗原
T1 sequence (looked up): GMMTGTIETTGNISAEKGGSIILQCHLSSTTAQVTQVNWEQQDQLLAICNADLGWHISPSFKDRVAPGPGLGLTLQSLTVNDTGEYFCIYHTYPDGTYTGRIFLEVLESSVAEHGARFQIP
The experiment in a line: ELISA, human TIGIT antigen coated. Background: An ELISA detects its analyte on a solid surface through an enzyme-linked reagent.

The target in a further assay is T2, CTLA4抗原 (UniProt P16410 36-161, limits assumed).
T2 sequence (looked up): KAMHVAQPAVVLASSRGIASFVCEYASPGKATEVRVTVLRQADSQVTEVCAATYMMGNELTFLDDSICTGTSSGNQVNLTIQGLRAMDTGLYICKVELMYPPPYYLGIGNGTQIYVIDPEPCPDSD
Nature of the assay: ELISA, antigen coated.

A further assay deals with T3, LAG-3抗原 (UniProt P18627 23-450, limits assumed).
T3 sequence (looked up): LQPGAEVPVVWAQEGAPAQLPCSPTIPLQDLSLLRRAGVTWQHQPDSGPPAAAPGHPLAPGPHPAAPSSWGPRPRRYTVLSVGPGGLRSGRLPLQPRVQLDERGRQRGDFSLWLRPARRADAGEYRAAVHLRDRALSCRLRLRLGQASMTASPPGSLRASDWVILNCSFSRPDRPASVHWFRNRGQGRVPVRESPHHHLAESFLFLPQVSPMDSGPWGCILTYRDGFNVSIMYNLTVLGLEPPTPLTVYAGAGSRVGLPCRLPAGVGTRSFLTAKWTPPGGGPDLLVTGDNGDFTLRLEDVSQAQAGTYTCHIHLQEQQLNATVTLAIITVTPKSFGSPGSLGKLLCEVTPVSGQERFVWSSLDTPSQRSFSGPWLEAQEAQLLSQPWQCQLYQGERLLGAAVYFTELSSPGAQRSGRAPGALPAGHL
Nature of the assay: ELISA, antigen coated.

The target of another assay is PD-1抗原 (UniProt Q15116 25-167, limits assumed). Nature of the assay: ELISA, antigen coated.
PD-1抗原, sequence (Q15116 25-167 limits assumed): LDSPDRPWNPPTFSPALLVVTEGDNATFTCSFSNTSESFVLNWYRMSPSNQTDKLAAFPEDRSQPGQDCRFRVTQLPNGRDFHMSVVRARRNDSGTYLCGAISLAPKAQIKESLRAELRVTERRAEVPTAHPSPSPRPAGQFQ
The next assay concerns the target PD-L1抗原 (UniProt Q9NZQ7 19-238, limits assumed). Nature of the assay: ELISA, antigen coated.
The target of assay [2] is T1, 重组人TIGIT蛋白抗原. Nature of the assay: ELISA, TIGIT antigen coated.
For assay [3], the target named is T1, 重组人TIGIT蛋白抗原. Nature of the assay: ELISA, TIGIT antigen coated, HRP anti-human IgG.

PD-L1抗原, sequence (Q9NZQ7 19-238 limits assumed): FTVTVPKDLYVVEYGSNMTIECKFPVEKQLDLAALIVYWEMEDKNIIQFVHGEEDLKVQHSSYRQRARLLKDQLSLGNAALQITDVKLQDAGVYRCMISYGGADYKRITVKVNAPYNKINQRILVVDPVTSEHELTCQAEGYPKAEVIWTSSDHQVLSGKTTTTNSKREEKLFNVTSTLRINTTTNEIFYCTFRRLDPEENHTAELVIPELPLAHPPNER

B1: 人源化抗体hmT251 (antibody, V domains shown)
VH: DVRLKESGPGLVKPSQTLSLTCTVSGGSITSGFWNWIRKHPGNGLEYIGYISYSGSSYYNPSLKSRVTISRDTSKNQYSLKLSSVTAADTAVYYCAAGDFGNYGYAMDVWGQGTTVTVSS
VL: DVQMTQSPSSLSASVGDRVTITCKASQRVTTAVAWYQQKPGKSPKLLIYSASYRYTGVPDRFTGSGSGTDFTLTISSLQPEDFATYYCQQYYSTPLTFGGGTKVEIK
notes: also called 人源化抗TIGIT抗体hmT251; 人源化单链抗体hmT251
Turning to B1, the figures for the EC50 with 重组人TIGIT蛋白抗原 [1] and in the assay with 重组人TIGIT蛋白抗原 [2] were 0.155 µg/mL and 0.0741 µg/mL, respectively. The binding result with CTLA4抗原, with LAG-3抗原, in the assay with PD-1抗原 and with PD-L1抗原 was “no binding” in each case.

B2: 鼠源抗TIGIT单链抗体mT251 (mT251 scFv-Fc重组蛋白) (scFv, V domains shown)
VH: DVKLKESGPSLVKPSQTLSLTCSVTGDSITSGFWNWIRKFPGNKLEYMGYISYSGSSYYNPSLKSRISITRDTSKNQYYLQLNSVTTEDTATYYCAAGDFGNYGYAMDNWGQGTSVTVSS
VL: DVLMTQSHKFMSTSVGDRVSITCKASQRVTTAVAWYQQKPGQSPKLLIYSASYRYTGVPDRFTGSGSGTDFTFTITSVQPEDLAIYYCQQYYSTPLTFGAGTKLEIK
As for B2, the EC50 came out at 0.125 µg/mL in the assay with 重组人TIGIT蛋白抗原 [3] and 0.099 µg/mL in the assay with 重组人TIGIT蛋白抗原 [2].
